The chains are these.
B1: CENP-U^Ame1_1–33 peptide (residues 1–33 of CENP-U^Ame1) (peptide)
peptide: MDRDTKLAFRLRGSHSRRTDDIDDDVIVFKTPNW-NH2
notes: CENP-U^Ame1, S. cerevisiae, residues 1-33; added C-terminal tryptophan after residue 33 (so in the source); source: synthetic peptide (Alta BioScience)
B2: CENP-C^Mif2_1–38 peptide (N-terminal 38 residues of CENP-C^Mif2) (peptide)
peptide: MDYMKLGLKSRKTGIDVKQDIPKDEYSMENIDDFFKDD-NH2
notes: CENP-C^Mif2, S. cerevisiae, residues 1-38; source: synthetic peptide (Alta BioScience)
B3: CENP-U^Ame1_1-33-Mut peptide (CENP-U^Ame1_1-33 with Ala substitutions) (peptide)
peptide: MDRDTKLAFRLRGSHSRRTDDIDDAAAVAKAPNW-NH2
notes: CENP-U^Ame1, S. cerevisiae, residues 1-33 with five Ala substitutions; added C-terminal tryptophan after residue 33 (so in the source); also called CENP-U^Ame1_1-33 mutant; source: synthetic peptide (Alta BioScience)

Ends that are not written are not given here.

In general, Kd refers to the free concentration of one partner at which half of the binding sites on the other are occupied at equilibrium, for simple one-to-one binding. Higher therefore signals lower affinity.

The target of this assay is T1, Knl1c:Mis12c^Mtw1c complex K^HB-RWDM^2E (full-length Dsn1 with S240E and S250E phosphomimetic mutations) (S. cerevisiae, UniProt P53148 445-917; Q04431 1-385; P40568 1-576; P39731 1-289; P47149 1-201; Q12143 …, S240E | S250E).
T1 construct: Knl1^Spc105_HB-RWD: Knl1^Spc105, S. cerevisiae S288c, residues 445-917; ZWINT^Kre28, S. cerevisiae S288c; no truncation stated; Dsn1^S240E,S250E: full-length Dsn1, S. cerevisiae S288c, with phosphomimetic mutations; Mis12^Mtw1, S. cerevisiae S288c; Nnf1, S. cerevisiae S288c; Nsl1, S. cerevisiae S288c; also called KM^2E; K^HB-RWDM^S240E,S250E; source: High-5 insect cells (baculovirus), purified …
T1 sequence (P53148 445-917, chain 1 of 2): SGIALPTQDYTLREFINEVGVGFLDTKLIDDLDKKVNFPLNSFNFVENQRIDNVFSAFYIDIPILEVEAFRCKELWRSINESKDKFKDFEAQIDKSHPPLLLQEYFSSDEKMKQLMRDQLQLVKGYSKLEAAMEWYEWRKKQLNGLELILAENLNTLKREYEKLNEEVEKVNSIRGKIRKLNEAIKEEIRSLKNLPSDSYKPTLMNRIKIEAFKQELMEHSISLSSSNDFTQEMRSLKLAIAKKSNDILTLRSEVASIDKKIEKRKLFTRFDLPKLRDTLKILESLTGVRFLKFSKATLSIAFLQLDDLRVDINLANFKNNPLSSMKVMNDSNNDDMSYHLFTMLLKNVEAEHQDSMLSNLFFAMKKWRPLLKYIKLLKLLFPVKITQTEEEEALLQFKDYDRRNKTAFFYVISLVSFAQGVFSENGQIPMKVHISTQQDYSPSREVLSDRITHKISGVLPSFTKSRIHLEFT
T1 sequence (Q04431 whole entry, chain 2 of 2, the tested form may be a part): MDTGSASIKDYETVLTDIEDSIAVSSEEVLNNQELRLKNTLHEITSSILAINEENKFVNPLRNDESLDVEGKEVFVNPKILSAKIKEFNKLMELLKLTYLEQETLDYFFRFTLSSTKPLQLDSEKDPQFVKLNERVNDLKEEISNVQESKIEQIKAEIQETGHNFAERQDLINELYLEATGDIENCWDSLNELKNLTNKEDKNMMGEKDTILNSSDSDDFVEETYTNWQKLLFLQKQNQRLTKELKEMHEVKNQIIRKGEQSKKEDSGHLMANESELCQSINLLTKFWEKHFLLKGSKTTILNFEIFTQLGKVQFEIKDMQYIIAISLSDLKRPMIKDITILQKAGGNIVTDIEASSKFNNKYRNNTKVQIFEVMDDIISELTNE
The assay can be described thus: ITC; peptide titrated into the complex in the cell; 20°C; 25 mM HEPES pH 7.5, 100 mM NaCl, 0.5 mM TCEP. Particulars: both partners purified.
B1 came in with a dissociation constant (Kd) of 240 nM.

B2 gave an equilibrium dissociation constant (Kd) of 980 nM. B3 had a dissociation constant Kd of 1310 nM.

(Values after paper PMC13065467, “Assembly and phosphoregulatory mechanisms of the budding yeast outer kinetochore KMN complex” (The Journal of Cell Biology, 2026).)
